Data on three molecules can be found in patent US20240190923A1.

Values joined by “and” are separate entries in the source; they are usually repeats but may differ in a detail not shown here. Identical values can stand only once.

What all share (assay): cell-based or functional assay
For one assay, the target named is MDC-4 (Crotalus atrox) (UniProt Q90282).
In assay [1] the target is whole C. atrox venom (SVMP proteolytic activity).
The target is the same in assay [2]. This is another data set of the same source.

Sequence of UniProt Q90282 (Q90282 190-609 limits assumed): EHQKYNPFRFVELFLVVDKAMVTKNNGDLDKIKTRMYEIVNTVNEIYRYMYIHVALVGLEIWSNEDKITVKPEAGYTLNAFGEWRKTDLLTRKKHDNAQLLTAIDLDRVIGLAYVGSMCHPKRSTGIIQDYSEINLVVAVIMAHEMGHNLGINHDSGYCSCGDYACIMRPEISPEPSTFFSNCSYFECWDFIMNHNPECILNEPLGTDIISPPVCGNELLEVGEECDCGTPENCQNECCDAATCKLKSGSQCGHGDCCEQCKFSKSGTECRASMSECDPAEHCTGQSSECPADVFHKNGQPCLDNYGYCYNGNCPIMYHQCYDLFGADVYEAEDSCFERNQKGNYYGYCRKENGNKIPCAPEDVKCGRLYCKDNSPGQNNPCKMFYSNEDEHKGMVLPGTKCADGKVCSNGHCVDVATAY

In the assay with MDC-4 (Crotalus atrox), “CroFab antivenom (crotalidae polyvalent immune fab ovine)” showed an amount for ˜50% neutralization of 2 µg MDC-4 proteolysis of Azocoll of 12.1 µg and a weight of CroFab relative to FETUA-3 for ˜50% neutralization of MDC-4 of 16 fold. This molecule returned a weight of CroFab relative to FETUA-3 for approximately 50% neutralization of whole venom SVMP activity in assay [1] of 18 fold.

B1: C. atrox FETUA-3 (recombinant, tag-free) (protein)
chain: FQLAGNMDCNTKGTKDWADIGVRYINEHKLHGYKQALNIIKIFRLLPSDGRSVIFHFKLNLLETECHVLDPTPLENCTVRQQNNHAVEMDCNVRIIHDIATFEDEVFVKCNSTPDSVENVRRNCPKCPILLPPNDPHVIDSVEYVLNKHNEKLSGHIYEVLEISRGQHKYEPEAFYVEFAIVEVNCTAEEAHDDHHDCHPNTDGENHIGFCRATVFRSHASLEKPKEEMFESDCVILHVKKGHAYSHLIEHHVGKYNTSPGRNSTDECVVQCPVAFVNKEVPKDISDHDTPPVEGCPGKALHFQL
B1: in assay [2], the inhibition of whole venom proteolysis of Azocoll collagen substrate (10 µg venom) is 2.5 µg and 5 µg.

B2: C. atrox FETUA-5 (recombinant, tag-free) (protein)
chain: YMVREEDLNCNSKAAKYRADQAVRYINEHNLHGYKQALNIIKTIRLLPSDGLLVVIYLKLNLLETECHVLDPTPVENCTVRQQNNHAVETDCDVKVIYNIETFKDEFLVKCHSTPGSVEKILQDCPKCPILLSLSDPHVVDSVEYVLNKHNEQLSGHVYEVLEISRGQHKYEPEAFYVEFAIVEVNCTAQEAHDDHHHCHPNTAGENHIAFCRATVFRSYASLEKPKDEKFESDCVILHVKEGHAHSHLIEHHTGKHSTSPGHNSTVLNLAHSHNHTSASHESHSHEHVMEVPVAVANREDPTDIPHHHTPSVDGCPGKVLHFKL
In assay [2], B2 registered an inhibition of whole venom proteolysis of Azocoll collagen substrate (10 µg venom) of 20 µg.
